The values below come from IntAct's records for PubMed 17964261.

The labels stand for the following.
B1: Proline-serine-threonine phosphatase-interacting protein 1 (Homo sapiens), O43586 (parent)
chain: MMPQLQFKDAFWCRDFTAHTGYEVLLQRLLDGRKMCKDMEELLRQRAQAEERYGKELVQIARKAGGQTEINSLRASFDSLKQQMENVGSSHIQLALTLREELRSLEEFRERQKEQRKKYEAVMDRVQKSKLSLYKKAMESKKTYEQKCRDADDAEQAFERISANGHQKQVEKSQNKARQCKDSATEAERVYRQSIAQLEKVRAEWEQEHRTTCEAFQLQEFDRLTILRNALWVHSNQLSMQCVKDDELYEEVRLTLEGCSIDADIDSFIQAKSTGTEPPAPVPYQNYYDREVTPLTSSPGIQPSCGMIKRFSGLLHGSPKTTSLAASAASTETLTPTPERNEGVYTAIAVQEIQGNPASPAQEYRALYDYTAQNPDELDLSAGDILEVILEGEDGWWTVERNGQRGFVPGSYLEKL
partner: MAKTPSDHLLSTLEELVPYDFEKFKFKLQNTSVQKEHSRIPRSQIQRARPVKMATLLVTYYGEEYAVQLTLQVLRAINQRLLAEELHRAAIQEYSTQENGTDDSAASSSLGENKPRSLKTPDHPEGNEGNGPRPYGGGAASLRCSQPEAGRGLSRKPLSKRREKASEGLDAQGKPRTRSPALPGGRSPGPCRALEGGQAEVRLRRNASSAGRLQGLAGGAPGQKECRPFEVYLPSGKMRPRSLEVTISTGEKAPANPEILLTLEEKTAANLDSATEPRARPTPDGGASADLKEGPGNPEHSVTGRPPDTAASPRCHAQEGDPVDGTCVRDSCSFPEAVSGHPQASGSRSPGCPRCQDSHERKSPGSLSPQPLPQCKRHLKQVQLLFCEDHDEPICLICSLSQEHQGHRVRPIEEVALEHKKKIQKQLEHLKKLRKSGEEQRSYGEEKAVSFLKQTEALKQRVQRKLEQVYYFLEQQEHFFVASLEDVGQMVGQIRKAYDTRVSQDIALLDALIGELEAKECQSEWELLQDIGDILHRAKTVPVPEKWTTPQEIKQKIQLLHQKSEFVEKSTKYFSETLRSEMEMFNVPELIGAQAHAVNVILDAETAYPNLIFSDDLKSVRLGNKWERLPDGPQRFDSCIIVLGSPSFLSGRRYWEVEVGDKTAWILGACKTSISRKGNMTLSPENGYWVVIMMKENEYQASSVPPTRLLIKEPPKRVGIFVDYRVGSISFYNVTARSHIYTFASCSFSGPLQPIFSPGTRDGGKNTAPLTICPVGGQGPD

The variants in the assay derive from B1. As to conditions: with mefv_human MEFV.
With E250Q, the “effect of a mutation on the interaction” value is on record as “increasing interaction strength”.
A230T: the “effect of a mutation on the interaction” value is reported as “increasing interaction strength”.
